Experimental data published in the DeepSol protein solubility set.

Test: soluble on expression in E. coli; label from the status in PepcDB or PDB records

Sequence | soluble on expression in E. coli
MIRFARPKPIIDSVSYNLLQKCYASGTPKGKSKLKTGQSLKRNKLTIKKGGGNGGGRGGDEVDKGKGRISDQCINAPCPVRYLRPKEREREARREKLGLISKARQKEIDFQKKGGSFTMGVTTAPMRIGTPGLDYISLGIFTEDELPKYKVTVEDGIRLAKEYSRVLMREHRARRVAEISLMKMRNAAVEALPENLKKAALVRDLTPFPVSRGTVRLLHLLKGIWRGL | soluble
MIRFCSLYSGSSGNAIFLSTGKTKILIDAGLSGKKITEALVSIGEKPSELSAILVSHEHSDHIKGAGIISRKYDVPIYANENTWAAMENLIGPVSVKNKMYFNTGREFEIGDVIINPFPIPHDAVEPVGFNFFVENSKITTATDIGHMNRELLEYIEGSDFLLIESNHDIEMLKVGPYPWPLKKRILGDKGHLSNEMAGKVVAHLAERGTRCFMLGHLSKENNFPELAYETVRNILKERNIDIERDIKLSVALRDKVGQVVEILEHHHHHH | not soluble
MIRGLRQIEPYVAGVQPAERKMIKLNTNENAYGASPKVREALANFDVDNLRKYSTLEQADLRAALANNLKVKPEQLMIANGSDDVLSIAFLAFFNNDEPVLFPDLTYGFYKVWADLYRVNYHEIPLAEDFTINTEDYLADNGGIILTNPNAPTGIYKPLNEIEKLLKANQDTVVIIDEAYISFGGQSALSLLNKYNNLVITRTFSKDAALAGLRVGYAIANEPLIAVMNAVKHSINPYSVDLLAERLATAAVEDWSYYQENAKKIQKTRAWFSEQLVKQGFDVLPSQANFVLTKPHDLATAKLFEELEARKIYVRYFPKVERIKDYLRISMGTQEEMEEVVKAIEEIRG | soluble
MIRKALLFVEKNETWKKELQIAKSVETVRKRLGQSNLNACSPRKVPLLTVKHVAKQFEYDKIHKDGPVEKWRNIFWSDESKIVLLGGKGSRSYVRRPPRTEYNPRYTFKKFKNCLKGWAFCCLEHHHHHHH | not soluble
MIRQLSLKDYEGVAGSALIDEIRSLGESLQGYNVRHINSTIIGGGVAEILSSLVPLMEDVGLTVNWEVLAGTTEFFHTTKLFHNGMHGQPVNITGEMLENYLAIAQKNQNLLDGDADLVVIHDQQPLGLTAFRGRTRGRWLWYCHVDPRYAVPEVWYFLAPMVATCDAAVFHLPEYARDLPVLQYFMPPAIDPLSDKLEHHHHHH | soluble
MIRRENRLRREFIFRKSLEEKQKSLEEKREKIRNALENNTKIDYNLRKDAIELAKGSDWGGQQYETDSEYRWAGAQDPKIVITTSRDPSSRLKMFAKEMKLIFPNAQRINRGHYDVKQVVQASKAQDSTDLIIFTETRGNPDGMLVCHLPFGPTAFFSMANVVMRHDIPNCGTMSEQYPHLIFDNLNSKLGHRFTTILKHLFPVPKPDSKRIITFSNSEDYISFRHHVYKTENDGEVELTEAGPRFELKPYQIKLGTLETLAAAEDEWVLRSYTNTARKRTFLSISRADDDE | not soluble
MIRSSKRSLSRDLVRFVQYVDDCVVKRYGFVVKSGSGIKLNGKKPQGFGTSSEDEDNNADMSDDSEEVPVSSIDKRKVASSKSRTGVVIEGDVVKPPVMKFVVLDKNRNVCQVYGNRHDLTSSAEDDSVDGDEETLVMSRDNGRKQSLKARNGVSVKGGGGKTTRVVKTVSFDENGNVCKVYGDTHDLTSSAEDDDSVDVGEETLVMCRDEGKRRSSKTGSRVLVKGSGGKTNRVVKTVSFDENGNVYKAYGDTPESSIISEEDDSTSGSNEGNGEEKGNVNEVEEIKYVPKENESFEEEEEKETDSENEVSSSEGSEGDKRVTKKEVQHQKGSLMFSPPLPLKMEP | soluble
MISIPVAQQQKLPRLVLPRVYGFPPNRETLGGTAYLIVENDGNTLIDSPPWTDGSQHWLREQGGVKRLILTHRGAIARVRAIQDTFDCEVMIHAQEAYLLPQVTVTPFNHHLAIGETLEILWTPGHSPGSACVYWSCQGGVLFTGRHLLPTPTGELAPIKTATTFHWPRQLRSVEALKAFCRQKSLSYLCPGANMGFLRGTLAIANAQAVLQGLSVDNLLCDKFLEHHHHHH | not soluble
MISTRFLRPSVSIFGFGIKSSMSSRAPPKALLQDMVVPPRQLFGPGPSNMADSIAETQSRNLLGHLHPEFVQIMADVRLGLQYVFKTDNKYTFAVSGTGHSGMECAMVNLLEPGDKFLVVEIGLWGQRAADLANRMGIEVKKITAPQGQAVPVEDIRKAIADYKPNLVFVCQGDSSTGVAQPLETIGDACREHGALFLVDTVASLGGTPFAADDLKVDCVYSATQKVLNAPPGLAPISFSDRAMEKIRNRKQRVASFYFDAIELGNYWGCDGELKRYHHTAPISTVYALRAALSAIAKEGIDESIQRHKDNAQVLYATLKKHGLEPFVVDEKLRLPCLTTVKVPEGVDWKDVAGKMMTNGTEIAGGLGATVGKIWRIGTFGINSNSTKIENVVELLSKSIGEKSK | not soluble
MISVCIATYNGEKYLAEQLDSILLQVSEEDELIISDDGSTDHTLEILRTYAANYPQIQLLQGPGQGVIANFAFALTHTKGEVIFLADQDDVWLPNKVTTVTEYFETHPDIQVVISDLKIVDADLQVTNPSYFKFRKVKPGFWRNAIKSGYIGAGMAFRQEMKNVILPIPPEVPMHDMWIGLLAARKKQTGLIKEPLVLYRRHGANVSPIITKTSFQQKLNWRVNLLKALHQRLKEQRLEHHHHHH | soluble
MITHAQTILCLDLGSKTGWAICGADGHIFSGVMNFQPRRFEGGGMRYLRFKQWLTEMKMTARRIDAVYFEEVRRHVGTDAAHVYGGLLATLTAWCEHHQIPYEGIPVGTIKKETTGKGNASKEEMIKAVCAKGHAPKDDNEADALAILYLMKEGGVYVQ | not soluble
MITILGPTACGKTRLAVSLAYRLETEIISADSRQIYRGMDIGTGKDLADYQVGGTTIPCHLIDIRPAGDKYNLFAYQHDFHQAYASILARGMDPILCGGTGMYIEAVLKGYHLPDVPPNPTLRDRLQGKSLTELTLILAAYGPLHNKTDVDSAQRAIRAIEIAEYIKNNPVESTEFPPIDSLIIGLDLDRDTRRKRITDRLHARMHEGMIEEVKGLLDSGIPAEDLIYYGLEYKFVTLYLTGQTDYESMFTGLETAIHQFAKRQMTWFRGMERRGFLIHWIDALLPADEQCEAVMKLYGANGLEHHHHHH | soluble
MITLAVDAMGGDQGLAVTVPGATAFLQAHPDVRLIMTGDETQLRQALTAAGAPMERIDICHTTQVVGMDEAPQSALKNKKDSSMRVAINQVKEGKAQAAVSAGNTGALMATARFVLKTIPGIERPAIAKFLPSDTDHVTLALDLGANVDCTSEQLAQFAVIGSELVHALHPQKGQPRVGLVNVGTEDIKGTDTVKQTYKLLQNSKLNFIGNIESNGILYGEADVVVADGFVGNVMLKTIEGAVKFMSGAIRREFQSNLFNKLAAVAALPALKGLKNKLDPRKFNGAILLGLRGIVIKSHGGTDETGFRYALEEAYHEAKSAGLSKIEQGVAEQLAALETAKAVQNENVGGL | not soluble
MITLPTGTKIWIIAGITDMRCGFNGLASKVQNTLKDDPFSGHIFVFRGRSGKMVKILWADRDGLCLFAKRLERGRFVWPVTREGKVHLTPAQLSMLLEGIAWPHPKRTERPGIRI | not soluble
MITMIYKGNRAAWAYIVARTKVMKSRLLKPEDFRKLLNMEFDEIVRYIGETEYKKEIDELGYKFTGPRLLDHALYANLARTYRKLIEVSFGASKFLIMKYLEKWDVWNIINIIRGKMANVQPEVVDDILVPAGERDMDFWKTLLVKDIEEIVKSFEGTPYYEPLSKIGSEDMSKIEDGLYKVYYRELLKLNPSDFAMKLFLDFIKMEIDIRNVKTLLRLKAEDATPDEIMECTIPGGYELTEEELRKLAAMPIDEMIKALEGYWFWNDVQIEGKEVAAVEIEFDKVWIKTISKRASNYPLSILPVLQYIVLKKVEVDNLRVLGWGKYYGLPSEEIERQMVIL | not soluble
MITVLRINHRPYRDKRITTHVALTARAFGASAILVDERDETLENTIRGVISNFGGSFSIKTGCNWIQEFKHFQGIRVHLTMYGRRINDVIDEIRNSGKDVMVLVGSEKVPIEAYEIADYNVSVTNQPISEVSALAIFLDRYFQGKEFEFEFRGRINVQPAERGKIVKIIPDEIECLDLLKKYGASEQLIEHVKAVEGLALKIAERCNADKRVIVAGSLLHDIGRTRTNGIDHAVAGAEILRSENIHDSVVSAVERHIGAGITREEAARLGLPEKDYVPETLEEMIVAQADNLFAGNKRLRLEEVLNIYRKRGLDSAAERIKELHRRISAIAGIDIDEIRLEHHHHHH | soluble
MIVAIIDGYTDEPAGLGVPPYLGLYPRYAYGAIKKARRDANIFYLTIDDLRATFEGEQGIKTKNKTPNFPKVKEILEKAEVIVFIGGLHTPGKYLSAVPGSVEEVSKFISHYNGVKVLGGPAFMGSAKIGGVKVTTKELRFAEEVFDYVVYGDIEAFLFDYFSGRELDPFRFRDYEELQPYALLGAEVVKQFPGYPEFVLIEIETQRGCPKAMGIGGCSFCTEPVRYRVVENRPQEYVAQEVKVFYNLGIRHFRIGRQSCIFSYMAKPNGRVPIPNPEEVEKLFKAVRLAAPNVKTLHVDNANPAVIANYPEESKRIAKAIIRYGTPGNVVAFGLETADPKVARINNLNATPEETYEAVKIINEVGGKRGYNGLPWLLPGINIIFGLPGETKRTYELTYEFLKKILDDGLMVRRINIRQVVVFPGTPLWNMRDKVKTEKHKKLIEHYRHKIRHEIDLPMLKRIVPVGTILRDVRAEIYDGELTFGRQFGSYPLIVGIPKRVELDRYYDVMIVDHGLRSVTGIPVPIDVNGESSKVLRWLPGIGKKTLARILAKRPFKSEEEFLSLLPEDVKKMYKGKIKV | soluble
MIVCMSVSLLRSYAVRRALGALVVAGFLGAGVTGCSNDAGAKTENTVDGSPTPVSTPTDGEGDGAGEPVEETPAEPEQRPTPVEPEAMKTGDKAGAIAAAQYFVEVIEYSMHTSTTDLLEKYSYEHCDRCAHFVEVINTRQEKNVLPKSVVINSSQEGHPEFRGEGAIIWRVPMRLQISEQWETGKEPRKEDVKVSISVANENGRWVLVGIVAED | not soluble
MIVLETERLNLRWFDIKDAPFILELVNDPAWIQFIGDKGVRNLEDAKNYIVNGPIDMYNKLRFGLYLVERKEDLTPLGMCGLIKRDSLEDVDIGFAFLETFRSKGYGYESASAIIEYGVQKLGMKRIVAITSIDNIASGKLLEKVGLRFEKIISDSGEDLKLFGYNA | not soluble
MIVRTLLDTDLYKFTTSYAYIKLFPYAMGTFSFNDRNETEYTEEFLEALKSEFNKLSRLRLTEEELEYMTRNCRFLPRVYWEWLSSFRFDPDKIDIHLDTTGRLHIEVSDFLYKVTLYEVPLLAIVSEIKNKFFGNVPDMSEILCKLSEKVELSNQHQLRFSEFGTRRRFSIDVQETVIKRLNDTAKYCTGTSNCYFAMKYGMKMMGTHPHEWFMFHGAQFGYKHANYMALENWVNVYDGDLGIALSDTYTSGIFLSNLSRKQAKLFDGVRCDSGNEFDFIDKLVARYKELGIDATTKTIVFSNALDFTKALEIQEYCKDKIRCSFGIGTNLTNDTGFAPSNIVMKLTQCKMNVNQEWRECIKLSDDEGKHTGSPEEVQACLYELRLAKLEHHHHHH | soluble
MIVVKVGGAEGINYEAVAKDAASLWKEGVKLLLVHGGSAETNKVAEALGHPPRFLTHPGGQVSRLTDRKTLEIFEMVYCGLVNKRLVELLQKEGANAIGLSGLDGRLFVGRRKTAVKYVENGKVKVHRGDYTGTVEEVNKALLDLLLQAGYLPVLTPPALSYENEAINTDGDQIAALLATLYGAEALVYLSNVPGLLARYPDEASLVREIPVERIEDPEYLALAQGRMKRKVMGAVEAVKGGVKRVVFADGRVENPIRRALSGEGTVVR | soluble
MIYKSIAERLRIRLNSADFTLNSLLPGEKKLAEEFAVSRMTIRKAIDLLVAWGLVVRRHGSGTYLVRKDVLHQTASLTGLVEVLKRQGKTVTSQVLIFEIMPAPPAIASQLRIQINEQIYFSRRVRFVEGKPLMLEDSYMPVKLFRNLSLQHLEGSKFEYIEQECGILIGGNYESLTPVLADRLLARQMKVAEHTPLLRITSLSYSESGEFLNYSVMFRNASEYQVEYHLRRLHPEKS | soluble
